In publication PMC4330388:

Biological target: T1, PPR10 (Zea mays, UniProt B8Y6I0 96-786)
T1 sequence: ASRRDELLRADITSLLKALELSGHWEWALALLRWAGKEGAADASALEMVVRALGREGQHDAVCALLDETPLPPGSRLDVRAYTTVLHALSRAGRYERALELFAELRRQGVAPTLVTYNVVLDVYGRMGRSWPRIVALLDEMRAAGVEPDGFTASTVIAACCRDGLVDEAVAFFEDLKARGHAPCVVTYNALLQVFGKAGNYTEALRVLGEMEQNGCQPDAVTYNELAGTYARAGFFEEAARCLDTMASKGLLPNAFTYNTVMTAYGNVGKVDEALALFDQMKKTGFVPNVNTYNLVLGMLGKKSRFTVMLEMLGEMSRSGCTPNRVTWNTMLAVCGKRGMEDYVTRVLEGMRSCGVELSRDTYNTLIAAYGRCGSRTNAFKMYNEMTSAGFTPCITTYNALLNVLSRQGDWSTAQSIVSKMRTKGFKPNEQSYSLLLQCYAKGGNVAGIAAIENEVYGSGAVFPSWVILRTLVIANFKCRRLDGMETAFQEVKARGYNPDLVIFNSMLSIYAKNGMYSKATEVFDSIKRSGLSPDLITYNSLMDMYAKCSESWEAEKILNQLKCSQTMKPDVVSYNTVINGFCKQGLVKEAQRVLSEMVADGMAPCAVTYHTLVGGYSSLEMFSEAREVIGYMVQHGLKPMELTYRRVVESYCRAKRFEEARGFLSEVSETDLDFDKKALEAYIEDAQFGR
Assay: SEC-SAXS

Binder: GUAUCCUUAACCAUUUC (ssRNA) [atpH RNA 17-mer]
- binding result: binds
